Target: CD64 (high affinity immunoglobulin gamma Fc receptor I) (human, UniProt P12314 16-374)
Assay: cell-based or functional assay

CD64 (high affinity immunoglobulin gamma Fc receptor I), sequence (P12314 16-374, form in doubt): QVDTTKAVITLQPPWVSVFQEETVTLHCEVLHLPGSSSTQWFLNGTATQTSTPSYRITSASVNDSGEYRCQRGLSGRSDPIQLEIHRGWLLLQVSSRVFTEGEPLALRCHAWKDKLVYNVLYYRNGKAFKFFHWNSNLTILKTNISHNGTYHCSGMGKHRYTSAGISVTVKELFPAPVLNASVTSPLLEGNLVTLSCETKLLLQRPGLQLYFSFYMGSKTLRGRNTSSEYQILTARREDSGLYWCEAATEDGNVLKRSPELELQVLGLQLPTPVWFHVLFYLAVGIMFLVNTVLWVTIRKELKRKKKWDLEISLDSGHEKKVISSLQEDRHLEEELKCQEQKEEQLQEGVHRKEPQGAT

B1: CD64-BB-m22 CAR (CD64 CAR containing the m22 scFv and a 4-1BB costimulatory domain) (other)
chain: EVQLVESGGGLVKPGGSLRLSCVASGFIFSDNYMYWVRQTPEKRLEWVATISDGGSYTYYPDSVKGRFTISRDNAKNNLYLQMSSLKSEDTAIYYCARGYYRYEGAMDYWGQGTSVTVSSGGGGSGGGGSGGGGSNIVMTQSPSSLAVSAGEKVTMSCKSSQSVLYSSNQKNYLAWYQQKPGQSPKLLIYWASTRESGVPDRFTGSGSGTDFTLTISSVQAEDLAVYYCHQYLSSWTFGGGTKLEIKTSTTTPAPRPPTPAPTIASQPLSLRPEACRPAAGGAVHTRGLDFACDIYIWAPLAGTCGVLLLSLVITLYCKRGRKKLLYIFKQPFMRPVQTTQEEDGCSCRFPEEEEGGCELSRVKFSRSADAPAYQQGQNQLYNELNLGRREEYDVLDKRRGRDPEMGGKPRRKNPQEGLYNELQKDKMAEAYSEIGMKGERRRGKGHDGLYQGLSTATKDTYDALHMQALPPR
  fold decrease in CD64+ AML cells (monocytic patient sample), flow cytometry, CAR-T with or without ven/aza: > 40 fold
  fold decrease in viable AML cells (mixed monocytic/primitive patient sample), flow cytometry after 48 hours with CAR-T cells alone: 4.2 fold

Source: patent US20260034217A1 (REGENTS OF THE UNIVERSITY OF COLORADO A BODY CORPORATE, published 2026)
